# Assay results taken from patent US20200239543A1 (ALX ONCOLOGY, published 2020).
# Where a chain is given by its changes, count along the chain named. In names and notes the source's numbering stands.
# B1: SIRP-α Fc construct with wildtype IgG2 Fc, SEQ ID NO: 126 (Fc fusion)
# chain: EEELQIIQPDKSVLVAAGETATLRCTITSLFPVGPIQWFRGAGPGRVLIYNQRQGPFPRVTTVSDTTKRNNMDFSIRIGNITPADAGTYYCIKFRKGSPDDVEFKSGAGTELSVRAKPSERKCCVECPPCPAPPVAGPSVFLFPPKPKDTLMISRTPEVTCVVVDVSHEDPEVQFNWYVDGVEVHNAKTKPREEQFNSTFRVVSVLTVVHQDWLNGKEYKCKVSNKGLPAPIEKTISKTKGQPREPQVYTLPPSREEMTKNQVSLTCLVKGFYPSDIAVEWESNGQPENNYKTTPPMLDSDGSFFLYSKLTVDKSRWQQGNVFSCSVMHEALHNHYTQKSLSLSPGK
# B2: SIRP-α Fc construct with Fc variant IgG2_N297A, SEQ ID NO: 128 (Fc fusion)
# chain: B1 chain with N197A
# B3: SIRP-α D1 variant polypeptide of SEQ ID NO: 71 (receptor)
# chain: EEELQVIQPDKSVLVAAGETATLRCTATSLFPVGPIQWFRGAGPGRELIYNQRQGPFPRVTTVSDLTKRNNMDFSIRIGNITPADAGTYYCVKFRKGSPDDVEFKSGAGTELSVRAKPS
# notes: engineered SIRP-α D1 domain
# B4: SIRP-α D1 variant polypeptide of SEQ ID NO: 210 (receptor)
# chain: B3 chain with V6I, A27I, Q54D, L66T, N80A, S98I
# B5: SIRP-α D1 variant polypeptide of SEQ ID NO: 75 (receptor)
# chain: B3 chain with A27I, Q54E
# notes: engineered SIRP-α D1 domain
# B6: SIRP-α D1 variant polypeptide of SEQ ID NO: 73 (receptor)
# chain: B3 chain with A27I, Q54E, L66T
# notes: engineered SIRP-α D1 domain
# B7: SIRP-α D1 variant polypeptide of SEQ ID NO: 209 (receptor)
# chain: B3 chain with V6I, A27I, F31Y, Q54D, L66T, N80A, S98I
# B8: SIRP-α D1 variant polypeptide of SEQ ID NO: 206 (receptor)
# chain: B3 chain with V6I, A27I, F31R, Q54D, L66T, N80A, S98I
# B9: SIRP-α D1 variant polypeptide of SEQ ID NO: 76 (receptor)
# chain: B3 chain with Q54E
# notes: engineered SIRP-α D1 domain
# B10: SIRP-α D1 variant polypeptide of SEQ ID NO: 74 (receptor)
# chain: B3 chain with V6I, A27I, Q54E, L66T
# notes: engineered SIRP-α D1 domain
# B11: SIRP-α D1 variant polypeptide of SEQ ID NO: 77 (receptor)
# chain: B3 chain with V6I, A27I, E47V, L66T, V92I
# notes: engineered SIRP-α D1 domain
# B12: SIRP-α D1 variant polypeptide of SEQ ID NO: 72 (receptor)
# chain: B3 chain with V6I, A27I, Q54E
# notes: engineered SIRP-α D1 domain
# B13: SIRP-α-Fc fusion, homodimer of SEQ ID NO: 136 (Fc fusion)
# chain: EEELQIIQPDKSVLVAAGETATLRCTITSLFPVGPIQWFRGAGPGRELIYNQREGPFPRVTTVSDTTKRNNMDFSIRIGAITPADAGTYYCVKFRKGSPDDVEFKSGAGTELSVRAKPSDKTHTCPPCPAPEAAGAPSVFLFPPKPKDTLMISRTPEVTCVVVDVSHEDPEVKFNWYVDGVEVHNAKTKPREEQYASTYRVVSVLTVLHQDWLNGKEYKCKVSNKALPAPIEKTISKAKGQPREPQVYTLPPSREEMTKNQVSLTCLVKGFYPSDIAVEWESNGQPENNYKTTPPVLDSDGSFFLYSKLTVDKSRWQQGNVFSCSVMHEALHNHYTQKSLSLSPG
# B14: SIRP-α D1 variant fused to Fc variant IgG1 L234A, L235A, G237A, N297A, SEQ ID NO: 96 (Fc fusion)
# chain: EEELQIIQPDKSVLVAAGETATLRCTITSLFPVGPIQWFRGAGPGRVLIYNQRQGPFPRVTTVSDTTKRNNMDFSIRIGNITPADAGTYYCIKFRKGSPDDVEFKSGAGTELSVRAKPSDKTHTCPPCPAPEAAGAPSVFLFPPKPKDTLMISRTPEVTCVVVDVSHEDPEVKFNWYVDGVEVHNAKTKPREEQYASTYRVVSVLTVLHQDWLNGKEYKCKVSNKALPAPIEKTISKAKGQPREPQVYTLPPSREEMTKNQVSLTCLVKGFYPSDIAVEWESNGQPENNYKTTPPVLDSDGSFFLYSKLTVDKSRWQQGNVFSCSVMHEALHNHYTQKSLSLSPGK
# B15: SIRP-α Fc construct with Fc variant IgG1_AAA (L234A, L235A, G237A), SEQ ID NO: 124 (Fc fusion)
# chain: B14 chain with A196N
# Tests used:
# [1] = biological target: T1, human Fcγ receptor RIIA (CD32a) (human, UniProt P12318 36-218); assay: SPR (ProteOn XPR36), biotinylated Fc construct on NLC chip, hFcγR as analyte, KD,app
# T1 construct: bought recombinant protein; also called hFcγR
# T1 sequence (looked up): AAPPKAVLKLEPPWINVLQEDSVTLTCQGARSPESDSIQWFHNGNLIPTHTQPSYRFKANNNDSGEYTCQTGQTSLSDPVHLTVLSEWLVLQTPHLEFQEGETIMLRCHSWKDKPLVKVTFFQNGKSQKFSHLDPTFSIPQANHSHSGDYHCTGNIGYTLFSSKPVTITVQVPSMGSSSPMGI
# [2] = biological target: T2, human Fcγ receptor RI (CD64) (human, UniProt P12314 16-288); assay: as above
# T2 construct: bought recombinant protein; also called hFcγRI; hFcγR
# T2 sequence (P12314 16-288 limits assumed): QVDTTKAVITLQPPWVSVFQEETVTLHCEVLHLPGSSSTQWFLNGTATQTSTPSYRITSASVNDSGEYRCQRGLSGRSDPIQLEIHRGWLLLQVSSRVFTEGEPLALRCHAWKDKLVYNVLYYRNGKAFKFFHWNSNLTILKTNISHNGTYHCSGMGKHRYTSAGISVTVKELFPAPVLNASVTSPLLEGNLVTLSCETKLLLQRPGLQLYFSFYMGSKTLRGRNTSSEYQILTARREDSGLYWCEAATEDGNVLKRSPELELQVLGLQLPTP
# [3] = biological target: T3, human Fcγ receptor RIIIA (CD16a) (human, UniProt P08637 17-208); assay: as above
# T3 construct: bought recombinant protein; also called hFcγR
# T3 sequence (P08637 17-208 limits assumed): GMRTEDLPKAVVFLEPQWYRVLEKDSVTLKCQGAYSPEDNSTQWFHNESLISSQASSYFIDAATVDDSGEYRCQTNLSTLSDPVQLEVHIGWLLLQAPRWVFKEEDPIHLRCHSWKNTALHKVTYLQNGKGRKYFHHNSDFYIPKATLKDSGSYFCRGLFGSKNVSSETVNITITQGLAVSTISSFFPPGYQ
# [4] = biological target: T4, human Fcγ receptor RIIB/C (CD32b/c) (human, UniProt P31994 46-217); assay: as above
# T4 construct: bought recombinant protein; also called CD32c; hFcγR
# T4 sequence (looked up): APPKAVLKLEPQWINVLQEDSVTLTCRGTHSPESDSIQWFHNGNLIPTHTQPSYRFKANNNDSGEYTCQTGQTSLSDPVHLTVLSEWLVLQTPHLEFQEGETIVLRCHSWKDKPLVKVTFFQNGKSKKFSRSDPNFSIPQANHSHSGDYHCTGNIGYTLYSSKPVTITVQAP
# [5] = biological target: T3, human Fcγ receptor RIIIA (CD16a); assay: SPR (ProteOn XPR36), biotinylated Fc construct on NLC chip, hFcγR as analyte
# [6] = biological target: T4, human Fcγ receptor RIIB/C (CD32b/c); assay: as above
# [7] = biological target: T1, human Fcγ receptor RIIA (CD32a); assay: as above
# [8] = biological target: T2, human Fcγ receptor RI (CD64); assay: as above
# human CD47 [9] = biological target: T5, human CD47 (human, UniProt Q08722 19-139); assay: SPR; protein made in mammalian cell
# T5 construct: extracellular domain; also called CD47 ECD
# T5 sequence (Q08722 19-139 limits assumed): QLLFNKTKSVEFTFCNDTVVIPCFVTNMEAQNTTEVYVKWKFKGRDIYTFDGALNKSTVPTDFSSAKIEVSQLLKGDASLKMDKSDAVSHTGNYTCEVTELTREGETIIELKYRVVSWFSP
# human CD47 [10] = biological target: T5, human CD47; assay: SPR, 25 C, 1:1 Langmuir fit
# rat CD47 = biological target: T6, rat CD47 (rat, UniProt P97829 19-140, limits assumed); assay: SPR (Biacore T100 and ProteOn XPR36)
# T6 sequence (looked up): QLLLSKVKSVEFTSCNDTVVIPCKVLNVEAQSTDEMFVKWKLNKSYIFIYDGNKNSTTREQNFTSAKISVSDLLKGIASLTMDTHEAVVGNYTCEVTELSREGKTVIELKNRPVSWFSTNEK
# human CD47 [11] = biological target: T5, human CD47; assay: SPR (Biacore T100 and ProteOn XPR36)
# mouse CD47 [12] = biological target: T7, mouse CD47 (mouse, UniProt Q61735 19-140, limits assumed); assay: SPR (Biacore T100 and ProteOn XPR36)
# T7 construct: also called mouse CD47 protein
# T7 sequence (looked up): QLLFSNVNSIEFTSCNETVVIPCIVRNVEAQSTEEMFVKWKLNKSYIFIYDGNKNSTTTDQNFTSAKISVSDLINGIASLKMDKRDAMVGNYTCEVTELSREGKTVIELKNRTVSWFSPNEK
# human CD47 [13] = biological target: T5, human CD47; assay: SPR, 25 C, 1:1 Langmuir fit; remark: listed apart in the source
# mouse CD47 [14] = biological target: T7, mouse CD47; assay: SPR, 25 C, 1:1 Langmuir fit
# [15] = biological target: T8, EGFR-ECD (epidermal growth factor receptor extracellular domain produced in HEK293 cells) (UniProt P00533 25-645, limits assumed); assay: SPR (Proteon GLC chip), EGFR-ECD injected in the second injection over construct A bound to immobilised CD47
# T8 construct: extracellular domain
# human CD47 [16] = biological target: T5, human CD47; assay: SPR as in Example 1
molecule,measurement,setting,value
"Fc variant construct IgG4_S228P, E233P, F234V, L235A, delG236 (Fc fusion)",Kd,[1],1600 nM
same,Kd,[2],2100 nM
"Fc variant construct IgG4_S228P, L235E (Fc fusion)",Kd,[1],1200 nM
same,Kd,[2],60 nM
same,Kd,[3],2400 nM
same,Kd,[4],1100 nM
Fc variant construct IgG4_S228P (Fc fusion),Kd,[1],810 nM
same,Kd,[2],1 nM
same,Kd,[4],850 nM
B1,binding result,[5],no binding (tested: 5000 nM)
same,binding result,[6],no binding (tested: 5000 nM)
same,Kd,[1],420 nM
same,Kd,[2],700 nM
B2,binding result,[7],no binding (tested: 5000 nM)
same,binding result,[8],no binding (tested: 5000 nM)
same,binding result,[5],no binding (tested: 5000 nM)
same,binding result,[6],no binding (tested: 5000 nM)
B3,Kd,human CD47 [9],4.94 nM
same,Kd,human CD47 [10],4.94 nM
B4,Kd,rat CD47,4.59 nM
same,Kd,human CD47 [11],1.65 nM
same,Kd,mouse CD47 [12],0.612 nM
same,Kd,human CD47 [13],6.79 nM
same,Kd,mouse CD47 [14],6.01 nM
B5,Kd,human CD47 [9],1.33 nM
same,Kd,human CD47 [10],1.33 nM
B6,Kd,human CD47 [9],0.448 nM
same,Kd,human CD47 [10],0.448 nM
B7,Kd,rat CD47,2.26 nM
same,Kd,human CD47 [11],1.01 nM
same,Kd,mouse CD47 [12],0.371 nM
same,Kd,human CD47 [13],4.46 nM
same,Kd,mouse CD47 [14],4.11 nM
B8,Kd,rat CD47,1.49 nM
same,Kd,human CD47 [11],0.967 nM
same,Kd,mouse CD47 [12],0.288 nM
same,Kd,human CD47 [13],5.26 nM
same,Kd,mouse CD47 [14],3.33 nM
B9,Kd,human CD47 [9],7.41 nM
same,Kd,human CD47 [10],7.41 nM
B10,Kd,human CD47 [9],0.276 nM
same,Kd,human CD47 [10],0.276 nM
B11,Kd,human CD47 [9],0.114 nM
same,Kd,human CD47 [10],0.114 nM
B12,Kd,human CD47 [9],0.738 nM
same,Kd,human CD47 [10],0.738 nM
B13,Kd,human CD47 [11],0.139 nM
same,binding result,[15],no binding
B14,binding result,[7],no binding (tested: 5000 nM)
same,binding result,[8],no binding (tested: 5000 nM)
same,binding result,[5],no binding (tested: 5000 nM)
same,binding result,[6],no binding (tested: 5000 nM)
same,Kd,human CD47 [16],0.0351 nM
same,Kd,human CD47 [13],0.0104 nM
same,Kd,mouse CD47 [14],33.2 nM
B15,binding result,[5],no binding (tested: 5000 nM)
same,binding result,[6],no binding (tested: 5000 nM)
same,Kd,[1],2300 nM
same,Kd,[2],8000 nM
